Measured values as given in article PMC4164784, “4E-BPs require non-canonical 4E-binding motifs and a lateral surface of eIF4E to repress translation” (Nature Communications, 2014).
No end group written: not given here.

T1: Dm eIF4E (residues 69–248, WT) (Drosophila melanogaster, UniProt P48598)
T1 construct: The truncated His6-eIF4E (residues 69–248) that was used in the ITC experiments; His6 (N, cleaved yes); made in house; host or cells: E. coli BL21 Star (DE3)
T1 sequence (P48598 69-248 isoform P48598-2): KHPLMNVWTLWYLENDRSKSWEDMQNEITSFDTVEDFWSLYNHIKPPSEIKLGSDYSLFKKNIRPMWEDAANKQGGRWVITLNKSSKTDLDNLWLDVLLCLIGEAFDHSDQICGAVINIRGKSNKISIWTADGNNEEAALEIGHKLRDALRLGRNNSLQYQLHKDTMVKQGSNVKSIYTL

T2: eIF4E (residues 69–248), purified (Drosophila melanogaster, UniProt P48598-2 69-248)
T2 construct: eIF4E, Drosophila melanogaster, residues 69–248; the methods say the tag was cleaved with HRV3C; also called truncated eIF4E; eIF4E trunc; not shown: His6, N-terminal, cleaved
T2 sequence (looked up): T1 sequence (P48598 69-248 isoform P48598-2)

B1: Thor R,G,T: Thor R81A, G82A, T83A (protein, UniProt Q9XZ56 1-117, looked up, variant R81A G82A T83A)
Eukaryotic translation …: MSASPTARQAITQALPMITRKVVISDPIQMPEVYSSTPGGTLYSTTPGGTKLIYERAFMKNLRGSPLSQTPPSNVPSCLLAAAPRTPFRKCVPVPTELIKQTKSLKIEDQEQFQLDL

Tests used:
[1] = molecular target: T1, Dm eIF4E (residues 69–248, WT); assay: ITC, binding to eIF4E (WT, residues 69–248); details: for KD: VP-ITC, 20 mM Na-phosphate (pH 7.0), 150 mM NaCl, GB1-fused peptides (C+NC 10 μM, C 50 μM, L+NC 100 μM CUP or 200 μM Thor and 4E-T, eIF4G 20 μM) into eIF4E WT 1–20 μM, one-site model, each experiment repeated twice, nb = no binding; for KD / Molar ratio / TΔS / ΔG / ΔH: 20 °C; for Molar ratio / TΔS / ΔG / ΔH: eIF4E WT (69–248), pH 7.0, nb = no binding
Description: Unless indicated otherwise, all the proteins were expressed in E. coli BL21 Star (DE3) cells (Invitrogen) that were grown in LB medium overnight at 20 °C. The lysis buffers were supplemented with DNaseI (5 μg ml^−1), lysozyme (1 mg ml^−1) and protease inhibitor cocktail (Roche). The truncated His6-eIF4E (residues 69–248) that was used in the ITC experiments and in Figs 2c and 5b was purified in lysis buffer containing 50 mM HEPES (pH 7.2), 300 mM NaCl, 20 mM imidazole and 2 mM β-mercaptoethanol using Ni^2+-affinity chromatography (HisTrap HP 5 ml, GE Healthcare) and eluted with a gradient of 20–500 mM imidazole. After the cleavage of the His6-tag with HRV3C protease (homemade), the protein was further purified using a heparin column (HiTrap Heparin HP 5 ml, GE Healthcare), followed by size exclusion chromatography (Superdex 75 16/60, GE Healthcare) in 20 mM Na-phosphate (pH 7.0), 300 mM NaCl and 2 mM dithiothreitol (DTT).
For the ITC measurements and the competition assays shown in Figs 4 and 5d–g, the 4E-BP peptides corresponding to the canonical (C) motifs, the combined (C+NC) motifs or L+NC were expressed with an HRV3C cleavable N-terminal MBP-tag and a non-cleavable C-terminal GB1 domain. The cells were lysed by sonication in lysis buffer containing 50 mM HEPES (pH 7.2), 300 mM NaCl and 2 mM DTT. The proteins were purified from the cleared lysates using amylose resin (New England Biolabs) followed by the cleavage of the MBP tag with HRV3C protease overnight at 4 °C. The proteins were further purified by size exclusion chromatography (Superdex 75 16/60, GE Healthcare) in 20 mM Na-phosphate (pH 7.0), 300 mM NaCl and 2 mM DTT. For the eIF4G fragment (residues 578–650) the MBP was removed after cleavage with TEV protease through an additional anion exchange chromatography (HiTrap Q HP 5 ml, GE Healthcare) before the final gel filtration.
The ITC experiments were performed using a VP-ITC microcalorimeter (MicroCal) at 20 °C. The solution of eIF4E (residues 69–248, WT or mutant: 1–20 μM) in the calorimetric cell was titrated with tenfold concentrated solutions of GB1-stabilized peptides corresponding to 4E-BPs C+NC (10 μM), C (50 μM), L+NC (100 μM CUP, 200 μM Thor and 4E-T) or eIF4G (residues 578–650, 20 μM) that were dissolved in the same buffer (20 mM Na-phosphate (pH 7.0) and 150 mM NaCl). The titration experiments consisted of an initial injection of 2 μl followed by 28 injections of 10 μl at an interval of 240 s. Each binding experiment was repeated twice. The thermodynamic parameters were estimated using a one-site binding model (Origin version 7.0), whereby the datapoint of the first injection was removed for the analysis.
(d) minimal regions for binding to eIF4E (wild-type (WT), residues 69–248). The top panels represent the raw data (μcal sec−1) whereas the bottom panels show the integrated data (kcal mole−1 of injectant) of heat changes that were best-fitted using a one-site binding model. The thermodynamic parameters correspond to heat changes that were detected when 4E-BPs (10 µM) or eIF4G (20 µM) were injected into the calorimetric cell (1.4 mL) containing 1 µM (a,b,c) or 2 µM (d) eIF4E.
Supplementary Figure 4. Thermodynamic parameters for the interaction of eIF4E with 4E-BP peptides. (a–f) ITC profiles for the interaction of eIF4E (WT, residues 69-248) and CUP (a,d), Thor (b,e) and 4E-T (c,f) peptides containing only the canonical motifs (a–c) or the L+NC regions (d–f). The measurements were performed as described in Supplementary
Fig. 3. The solutions contained the peptides corresponding to the canonical motifs (50 µM) or the L+NC regions (100 µM for CUP and 200 µM for Thor and 4E-T). The eIF4E concentration in the calorimetric cell was 5 µM (for the C peptides), 10 µM (for CUP L+NC) and 20 µM (for Thor and 4E-T L+NC peptides).
(1 picture or pasted object on this page, not shown here)

[2] = test system: endogenous eIF4E and HA-tagged 4E-BPs in S2 cells; assay: Immunofluorescence localization in S2 cells; format: cell-based, Drosophila melanogaster; details: −LMB
Description: S2 cells expressing HA-tagged versions of CUP, Thor and 4E-T or the indicated mutants were treated with Leptomycin B (100 nM; Sigma) or methanol as a control for 12 h. After the LMB treatment, the cells were allowed to adhere to poly-D-lysine–coated coverslips for 15 min and were fixed with 2% paraformaldehyde for 10 min. The cells were then permeabilized with 0.1% Triton X-100 in PBS (10 min) and stained with affinity-purified monoclonal anti-HA (Covance 1:1,000) and polyclonal anti-eIF4E (1:2,000) antibodies in PBS containing 1% BSA for 1 h. Alexa Fluor 594-labeled goat anti-rabbit and 488-labeled anti-mouse antibodies (Invitrogen) were used at dilutions of 1:1,000 and 1:2,000, respectively. The cells were mounted using Fluoromount-G (Southern Biotech). The images were acquired at room temperature using a confocal microscope (TCS SP2; Leica) that was fitted with a Plan-Apochromat × 100 NA 1.40 oil immersion objective and a series of three photomultipliers (Hamamatsu Photonics) controlled with the Leica confocal software (version 2.61). The images were prepared using Photoshop (Adobe). […]
Thor) independent experiments. […] Confocal fluorescent […]
micrographs of fixed S2 cells expressing HA-4E-T and GFP-Tral. The localization of HA-4E-T was determined by indirect immunofluorescence using an anti-HA antibody. The merged pictures show the HA signal in red and the GFP-Tral signal in green. Bar: 5 μm.

[3] = molecular target: T2, eIF4E (residues 69–248), purified; assay: ITC; VP-ITC, 20 °C; eIF4E (69–248, WT or mutant, 1–20 μM) in the cell, tenfold concentrated GB1-stabilized peptides titrated in; 20 mM Na-phosphate pH 7.0, 150 mM NaCl; one-site binding model; details: both partners purified
endogenous eIF4E = assay: Coimmunoprecipitation / m7GTP pull-down with endogenous eIF4E in S2 cell lysates; format: cell-based, Drosophila melanogaster; details: western blot
Description: The coimmunoprecipitations assays were performed as previously described. For the pull downs using m^7GTP beads, 25 μl of immobilized γ-aminophenyl-m^7GTP (C10-spacer—Jena Bioscience) beads was added to the cell lysates and the mixtures were rotated for 1 h at 4 °C. The beads were washed three times with NET buffer (50 mM Tris (pH 7.4), 150 mM NaCl, 1 mM EDTA and 0.1% Triton X-100). The bound proteins were eluted with 2 × SDS–polyacrylamide gel electrophoresis (SDS–PAGE) sample buffer and analyzed by western blotting (WB). All of the WB experiments were developed with the ECL western blotting detection system (GE Healthcare) as recommended by the manufacturer. The antibodies used in this study are listed in Supplementary Table 2.
Thor and 4E-T) or HA-eIF4G and endogenous eIF4E in S2 cell lysates. The proteins were immunoprecipitated using a polyclonal anti-eIF4E antibody (α-4E). The pre-immune (Pre-I) serum and an HA-tagged version of MBP served as negative controls. The inputs (1%) and immunoprecipitates (10%) were analyzed by western blotting using anti-HA and anti-eIF4E antibodies. (b,c) The interaction of HA-tagged full length 4E-BPs (CUP, Thor and 4E-T) and eIF4G with endogenous eIF4E was analyzed by coimmunoprecipitation using anti-HA antibodies (b) or by pull-down using m7GTP-Sepharose beads (c). HA-MBP served as a negative control. The inputs (10%) and immunoprecipitates (30%) were analyzed by western blotting using anti-HA and anti-eIF4E antibodies. (d) Western blot showing the interaction of HA-Thor (full-length either wild-type or mutants) with endogenous eIF4E in S2 cells. The proteins were immunoprecipitated using anti-HA antibodies and analyzed as described in (b,c). (e) Western blot showing the interaction of HA-4E-T (residues 1–511, wild-type or mutants) with endogenous eIF4E. The proteins were immunoprecipitated using anti-HA antibodies and analyzed as described in (b,c). The size markers (kDa) are shown to the right of each panel. Mutants are described in Supplementary Table 1.

| Molecule | TΔS [1] | ΔG [1] | Kd [3] | dH [3] | stoichiometry N [3] | other results |
| --- | --- | --- | --- | --- | --- | --- |
| 4E-T L+NC: 4E-T residues 22–44, linker+non-canonical | nb | nb | – | – | – | KD [1]: nb; Molar ratio [1]: nb; ΔH [1]: nb |
| 4E-T NC: 4E-T residues 31–44, non-canonical motif | – | – | – | – | – | localization of endogenous eIF4E (in words) ([2]; S2 cells overexpressing 4E-BP or mutant): the number of eIF4E-positive P-bodies was reduced; localization of the 4E-BP (in words) ([2]; S2 cells, steady-state): still localized to P-bodies |
| CUP L+NC: CUP residues 342–376, linker+non-canonical, C-terminal GB1 (ALMHRSKESFVMPRIATCDDIELEGRLRRMNIWRT-GB1; UniProt Q9VMA3 342-376, looked up, fragment) | -38.1 kJ/mol | -39.2 kJ/mol | – | – | – | KD of L+NC relative to C motif (in words) ([1]; eIF4E WT): comparable to that of the C motif; binding thermodynamics (in words) ([1]; eIF4E WT): enthalpically driven; interaction with eIF4E (in words) ([1]; eIF4E WT, L+NC peptides): interacted with eIF4E at detectable levels |
| Thor L+NC: Thor residues 64–83, linker+non-canonical | nb | nb | – | – | – | KD [1]: nb; Molar ratio [1]: nb; ΔH [1]: nb |
| ALMHRSKESFVMPRIATCDDIELEGRLRRMNIWRT (domain or fragment) [CUP L+NC peptide fused C-terminally to GB1] | – | – | 0.103 µM | -77.4 ± 0.837 kJ/mol | 0.98 ± 0.01 | – |
| TKLIYERAFMKNLR (domain or fragment) [Thor C peptide fused C-terminally to GB1] | – | – | 2.26 µM | -50.6 ± 11.7 kJ/mol | 1.06 ± 0.01 | – |
| KSYTRSRLMDIRNGMFN (domain or fragment) [CUP C peptide fused C-terminally to GB1] | – | – | 0.16 µM | -70.46 ± 0.167 kJ/mol | 1.01 ± 0.01 | – |
| B1 | – | – | – | – | – | interaction with endogenous eIF4E (in words) (endogenous eIF4E): ineffective |
| RYSKVDLLALRYE (domain or fragment) [4E-T C peptide fused C-terminally to GB1] | – | – | 0.016 µM | -77.8 ± 2.93 kJ/mol | 0.95 ± 0.01 | – |
